# Laboratory results from PMC12901311, “HEXIM1 inter-monomer autoinhibition governs 7SK RNA binding specificity and P-TEFb inactivation” (Nature Communications, 2024).
# Assays:
# [1] = target: Hexim1 BR-L-AR(S183C-MTSL) (human, UniProt O94992 142-253, S183C); assay: NMR (PRE); 1:1.2 protein:RNA; intensity recovery outside BR; ITC: 20 mM HEPES pH 7.5, 150 mM KCl, 1 mM TCEP, 295 K; NMR: 50 mM Na phosphate pH 6.2, 150 mM KCl, 0.02% NaN3, 5% D2O, 298 K; EMSA: binding buffer (20 mM HEPES); details: protein: recombinant; tags: MBP-His6 removed by TEV; non-native N-terminal G; MTSL spin label at C183; hairpin with U40U41 and U63 bulges
# Chain of Hexim1 BR-L-AR(S183C-MTSL) (O94992 142-253 S183C): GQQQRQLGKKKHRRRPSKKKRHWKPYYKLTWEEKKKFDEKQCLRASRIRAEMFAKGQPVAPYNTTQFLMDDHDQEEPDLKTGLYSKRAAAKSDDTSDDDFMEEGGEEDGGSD
# [2] = target: Hexim1 NBLA-S158EE (human, UniProt O94992 1-157+=EE+159-253, internal_change); assay: ITC; N=0.74; ITC: 20 mM HEPES pH 7.5, 150 mM KCl, 1 mM TCEP, 295 K; NMR: 50 mM Na phosphate pH 6.2, 150 mM KCl, 0.02% NaN3, 5% D2O, 298 K; EMSA: binding buffer (20 mM HEPES); details: protein: recombinant; hairpin with U40U41 and U63 bulges
# Chain of Hexim1 NBLA-S158EE (O94992 other isoform, or with tags, fused parts or gaps): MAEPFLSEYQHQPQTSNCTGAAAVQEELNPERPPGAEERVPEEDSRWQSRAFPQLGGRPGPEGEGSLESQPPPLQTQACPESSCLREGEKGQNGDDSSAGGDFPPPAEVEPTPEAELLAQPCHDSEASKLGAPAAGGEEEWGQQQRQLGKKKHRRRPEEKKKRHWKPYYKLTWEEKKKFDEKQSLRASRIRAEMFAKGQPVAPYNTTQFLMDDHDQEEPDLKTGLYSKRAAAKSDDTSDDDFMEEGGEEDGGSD
# [3] = target: Hexim1-deltaPYNT (human, UniProt O94992 1-201+206-359, internal_change); assay: ITC; ITC: 20 mM HEPES pH 7.5, 150 mM KCl, 1 mM TCEP, 295 K; NMR: 50 mM Na phosphate pH 6.2, 150 mM KCl, 0.02% NaN3, 5% D2O, 298 K; EMSA: binding buffer (20 mM HEPES); details: protein: recombinant; chain copies: 2; hairpin
# Chain of Hexim1-deltaPYNT (O94992 other isoform, or with tags, fused parts or gaps | mutant): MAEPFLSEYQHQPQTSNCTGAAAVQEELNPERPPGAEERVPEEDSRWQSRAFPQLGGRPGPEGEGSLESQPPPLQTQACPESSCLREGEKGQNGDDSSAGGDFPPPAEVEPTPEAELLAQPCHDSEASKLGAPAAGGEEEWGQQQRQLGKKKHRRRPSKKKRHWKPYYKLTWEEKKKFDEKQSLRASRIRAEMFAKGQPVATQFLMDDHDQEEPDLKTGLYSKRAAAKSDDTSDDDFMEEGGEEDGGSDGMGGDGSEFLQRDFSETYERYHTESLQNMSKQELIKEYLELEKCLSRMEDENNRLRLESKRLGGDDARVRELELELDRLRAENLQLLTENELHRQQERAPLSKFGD
Binder,binding result [1],Kd [2] [µM],binding signal [3]
GGCCAUUGAUCGCCUUCGGGCUGAUCUGGCC (structured_RNA) [7SK SL1-dI],binds,0.727 ± 0.063,
GGAUGUGAGGGCGAUCUGGCUUCGGCCUUCCUCCCUCACCGCUCCA (structured_RNA) [7SK SL1-p],,,~5 fold tighter than wild-type Hexim1
